Patent publication US8629241B2, “Alpha helical mimics, their uses and methods for their production” (The University of Queensland, priority 2004, dated 2014)
Where two headings read alike, the source gives them in different places. Where a SMILES comes first, the peptide text is derived from it. Bridges are numbered along the chain shown (N, C = ends). [ ]: non-standard residue; d: D form. Orn = NCCC[C@H](N)C(=O)O

Key:
[1] = assay type: physicochemical; conditions: for [θ]207: molar elipticity at 207 nm; for θ222/θ208 / [θ]192 / [θ]208 / [θ]222: Table 8; for [θ]192 / [θ]208 / [θ]222: one or more cyclic pentapeptide modules versus linear peptides; for % helicity: fH × 100, [θ∞H]222 = −44000, k = 2.6; for percentage helicities: equation 2b with k˜4, assuming 8 has 100% helicity
Description: Circular Dichroism (CD) was performed on peptides having SEQ ID NOs: 8 to 14 and 18 to 31, using methods described above. The molar elipticities at 222 nm, 208 nm and 190 nm, ratios of elipticities at 222 nm/208 nm and relative helicity are shown in Tables 6 and 7.
Assuming that mean alpha helix content (fH) is linearly related to elipticity at 222 nm, or in our case 215 nm ([θ]obs215), then the equation for calculating helix content is: fH=([θ]obs215−[θ]C)/([θ]∞215−[θ]C) (1) Luo and Baldwin^22 determined that the random coil ([θ]C) and infinite alpha helix ([θ]∞222) molar elipticities are temperature dependent based on the equations: [θ]C=2220−53T (2a) [θ]∞215=(−44000+250T)(1−k/Np) (2b) where T is temperature in degrees Celsius, Np is the number of peptide units, and k is a finite length correction.
CD was performed on peptides having one [SEQ ID NO: 8] or more than one modular macrocycle [SEQ ID NOs: 46 and 47], as compared with corresponding linear peptides, Ac[KARAD]n—NH2 where n=1 [SEQ ID NO: 14], n=2 [SEQ ID NO: 54] and n=3 [SEQ ID NO: 55]. The molar elipticities at 222 nm, 208 nm and 190 nm, ratios of elipticities at 222 nm/208 nm and percentage helicity are shown in Table 8.
CD experiments were performed on a Jasco Model J-710 spectropolarimeter which was routinely calibrated with (1S)-(+)-10-camphorsulfonic acid. Temperature control was achieved using a Neslab RTE-111 circulating water bath. Spectra were recorded in a 0.1 cm Jasco cell between 310-185 nm at 50 nm/min with a band width of 1.0 nm, response time of 2 sec, resolution step width of 0.1 nm and sensitivity of 20, 50 or 100 mdeg. Each spectrum represents the average of 5 scans with smoothing to reduce noise. Peptide samples for CD spectroscopy were dissolved in distilled water (˜1 mg/mL). Each stock solution was diluted to a final concentration of 50 μM in 10 mM sodium phosphate buffer (pH7.4), with or without additives (2,2,2-trifluoroethanol (TFE) or guanidine.HCl). Guanidine.HCl denaturation experiments were performed according to Creighton^105.
1D ^1H NMR spectra were then recorded with presaturation and a relaxation delay (d1) of 30 seconds to allow for full relaxation of peptide and DSS^1H signals to facilitate accurate integration of proton signals with S/N>250:1. This method provides reproducible concentrations within ±2%.
CD data in ellipticity was converted to mean peptide ellipticity using the equation: [θ]=θ/(10×C×Np×1) where θ is the ellipticity in millidegrees, C is the peptide molar concentration (M), 1 is the cell path length (cm), and Np is the number of peptide units (ie. pentapeptides […], 10 & 11 Np=5, 12 Np=4.)
Relative helicities were employed to allow scaling of compounds by dividing the [θ]obs215(8)/[θ]obs215(x) for pentapeptides, and [θ]obs215(24)/[θ]obs215(x) for hexapeptides.

trypsin = assay: Proteolytic stability of the helix, trypsin digestion (Example 10); assay type: in vitro ADME; conditions: pH 8.2, room temperature, 1 to 155 minutes
Description: A standard solution of Ac—KARAD-NH2 and Ac—(cyclo-1,5)-KARAD-NH2 (1 mg/mL) was prepared in 100 mM ammonium carbonate buffer at pH˜8.2. To 100 μL of each solution was added 1 mg/mL of trypsin (1 μL). The digest was conducted at room temperature with 5 μL aliquots taken at 1, 4, 8, 28, 48, 55, 110, 155 minutes. Aliquots were diluted with 5 μL of 3% TFA to stop the reaction. and analyzed by LC-MS using 2.1×150 mm Phenomenex 300 Å C18 5 μm column, with a 3% per minute linear gradient of 0-60% acetonitrile over 20 minutes. The amount of starting material left in each sample was quantified by determination of total ion counts for the molecular ion.
Compound of SEQ ID NO 8 and its acyclic version SEQ ID NO: 14 were incubated with trypsin (pH 8.2), aliquots removed at intervals between 1 and 155 minutes, and analyzed by LCMS. […] Similarly the cyclic compound 8 was not degraded by human serum (1 h, 37° C.). […] This is consistent with other observations that only an extended or linear peptide conformation is recognized, not only by trypsin, but by all proteolytic enzymes^125 Presumably the cycle is too tightly locked into an alpha helical turn to permit significant unwinding to the extended format needed for recognition by trypsin.

[2] = [θ]215 relative to SEQ ID NO: 8, 10 mM phosphate buffer, pH 7.4, 25° C
[3] = molar elipticity at 190 nm, 10 mM phosphate buffer, pH 7.4, 25° C
[4] = 10 mM phosphate buffer, pH 7.4, 25° C
[5] = molar elipticity at 215 nm, 10 mM phosphate buffer, pH 7.4, 25° C
[6] = ratio of elipticities, 10 mM phosphate buffer, pH 7.4, 25° C
[7] = cyclic hexapeptides 23-31, 10 mM phosphate buffer pH 7.4 at 25° C
[8] = θ215 relative to SEQ ID NO: 24, 10 mM phosphate buffer pH 7.4 at 25° C

Row | Molecule | Relative helicity [1, 2] | [θ]190 [1, 3] | [θ]207 [1, 4] | [θ]215 [1, 5] | θ215/θ207 [1, 6] | Molar ellipticity at 207 nm [1, 7] | [θ]190 [1, 7] | [θ]215 [1, 7] | θ215/θ207 [1, 7] | Relative helicity [1, 8] | also measured
1 | Ac-(cyclo-1,5)-[DARAK]-NH2 (Ac-DARAK-NH2; lactam 1-5; SMILES CC(=O)N[C@H]1CC(=O)NCCCC[C@@H](C(N)=O)NC(=O)[C@H](C)NC(=O)[C@H](CCCNC(=N)N)NC(=O)[C@H](C)NC1=O) [SEQ ID NO: 9] | 0.60 | 15600 deg.cm^2.dmol^−1.residue^−1 | −10705 deg.cm^2.dmol^−1.residue^−1 | −7723 deg.cm^2.dmol^−1.residue^−1 | 0.72 |  |  |  |  |  | 
2 | Ac-(cyclo-2,6)-R[KGGGD]-NH2 (Ac-RKGGGD-NH2; lactam 2-6; SMILES CC(=O)N[C@@H](CCCNC(=N)N)C(=O)N[C@H]1CCCCNC(=O)C[C@@H](C(N)=O)NC(=O)CNC(=O)CNC(=O)CNC1=O) [SEQ ID NO: 31] |  |  |  |  |  | −4868 deg.cm^2.dmol^−1.residue^−1 | −1593 deg.cm^2.dmol^−1.residue^−1 | −2131 deg.cm^2.dmol^−1.residue^−1 | 0.44 | 0.14 | 
3 | Ac-(cyclo-2,6)-R[KAGAD]-NH2 (Ac-RKAGAD-NH2; lactam 2-6; SMILES CC(=O)N[C@@H](CCCNC(=N)N)C(=O)N[C@H]1CCCCNC(=O)C[C@@H](C(N)=O)NC(=O)[C@H](C)NC(=O)CNC(=O)[C@H](C)NC1=O) [SEQ ID NO: 28] |  |  |  |  |  | −7678 deg.cm^2.dmol^−1.residue^−1 | 10036 deg.cm^2.dmol^−1.residue^−1 | −4874 deg.cm^2.dmol^−1.residue^−1 | 0.63 | 0.32 | 
4 | Ac-(cyclo-1,5)-[OARAD]-NH2 (Ac-[Orn]ARAD-NH2; lactam 1-5; SMILES CC(=O)N[C@H]1CCCNC(=O)C[C@@H](C(N)=O)NC(=O)[C@H](C)NC(=O)[C@H](CCCNC(=N)N)NC(=O)[C@H](C)NC1=O) [SEQ ID NO: 12] | 0 | −4613 deg.cm^2.dmol^−1.residue^−1 | −2077 deg.cm^2.dmol^−1.residue^−1 | 92 deg.cm^2.dmol^−1.residue^−1 | −0.04 |  |  |  |  |  | 
5 | Ac-(cyclo-1,5)-[DARAO]-NH2 (Ac-DARA[Orn]-NH2; lactam 1-5; SMILES CC(=O)N[C@H]1CC(=O)NCCC[C@@H](C(N)=O)NC(=O)[C@H](C)NC(=O)[C@H](CCCNC(=N)N)NC(=O)[C@H](C)NC1=O) [SEQ ID NO: 13] | 0.37 | −6954 deg.cm^2.dmol^−1.residue^−1 | −9748 deg.cm^2.dmol^−1.residue^−1 | −4671 deg.cm^2.dmol^−1.residue^−1 | 0.48 |  |  |  |  |  | 
6 | cyclo(1-5, 6-10, 11-15)-Ac-[KARADKARADKARAD]-NH2 (Ac-KARADKARADKARAD-NH2; lactam 1-5, 6-10, 11-15; SMILES CC(=O)N[C@H]1CCCCNC(=O)C[C@@H](C(=O)N[C@H]2CCCCNC(=O)C[C@@H](C(=O)N[C@H]3CCCCNC(=O)C[C@@H](C(N)=O)NC(=O)[C@H](C)NC(=O)[C@H](CCCNC(=N)N)NC(=O)[C@H](C)NC3=O)NC(=O)[C@H](C)NC(=O)[C@H](CCCNC(=N)N)NC(=O)[C@H](C)NC2=O)NC(=O)[C@H](C)NC(=O)[C@H](CCCNC(=N)N)NC(=O)[C@H](C)NC1=O) [SEQ ID NO: 47] |  |  |  |  |  |  |  |  |  |  | θ222/θ208 [1]: 1.34; [θ]192 [1]: 100811 degcm^2dmol^−1residue^−1; [θ]208 [1]: −23842 degcm^2dmol^−1residue^−1; [θ]222 [1]: −31987 degcm^2dmol^−1residue^−1; % helicity [1]: 88%
7 | CC(=O)N[C@@H](CCCCN)C(=O)N[C@@H](C)C(=O)N[C@@H](CCCNC(=N)N)C(=O)N[C@@H](C)C(=O)N[C@@H](CC(=O)O)C(N)=O [SEQ ID NO: 14, Ac-[KARAD]-NH2] (Ac-KARAD-NH2) | 0.04 | −7372 deg.cm^2.dmol^−1.residue^−1 | −5555 deg.cm^2.dmol^−1.residue^−1 | −524 deg.cm^2.dmol^−1.residue^−1 | 0.09 |  |  |  |  |  | θ222/θ208 [1]: 0.12; [θ]192 [1]: −14779 degcm^2dmol^−1residue^−1; [θ]208 [1]: −5758 degcm^2dmol^−1residue^−1; [θ]222 [1]: −732 degcm^2dmol^−1residue^−1; % helicity [1]: 0.8%; stability to trypsin (starting material left, LCMS) (trypsin): completely hydrolyzed within a few minutes
8 | Ac-(cyclo-2,6)-R[KAQAD]-NH2 (Ac-RKAQAD-NH2; lactam 2-6; SMILES CC(=O)N[C@@H](CCCNC(=N)N)C(=O)N[C@H]1CCCCNC(=O)C[C@@H](C(N)=O)NC(=O)[C@H](C)NC(=O)[C@H](CCC(N)=O)NC(=O)[C@H](C)NC1=O) [SEQ ID NO: 26] |  |  |  |  |  | −12279 deg.cm^2.dmol^−1.residue^−1 | 36865 deg.cm^2.dmol^−1.residue^−1 | −11394 deg.cm^2.dmol^−1.residue^−1 | 0.93 | 0.84 | percentage helicities [1]: 70%
9 | Ac-(cyclo-2,6)-R[KAFAD]-NH2 (Ac-RKAFAD-NH2; lactam 2-6; SMILES CC(=O)N[C@@H](CCCNC(=N)N)C(=O)N[C@H]1CCCCNC(=O)C[C@@H](C(N)=O)NC(=O)[C@H](C)NC(=O)[C@H](Cc2ccccc2)NC(=O)[C@H](C)NC1=O) [SEQ ID NO: 27] |  |  |  |  |  | −9087 deg.cm^2.dmol^−1.residue^−1 | 27718 deg.cm^2.dmol^−1.residue^−1 | −8644 deg.cm^2.dmol^−1.residue^−1 | 0.95 | 0.76 | percentage helicities [1]: 53%
10 | Cyclo(6-10, 11-15)-FGGFT[KARKD][KRKLD]-NH2 (FGGFTKARKDKRKLD; bicyclic lactam bridges, C-terminal amide) [SEQ ID NO: 76] |  |  |  |  |  |  |  |  |  |  | helicity by CD compared to native agonist and antagonist sequences ([1]; versus F/Nphe-[…], FIG. 12): increase helicity
11 | Ac-(cyclo-2,6)-R[KSSSD]-NH2 (Ac-RKSSSD-NH2; lactam 2-6; SMILES CC(=O)N[C@@H](CCCNC(=N)N)C(=O)N[C@H]1CCCCNC(=O)C[C@@H](C(N)=O)NC(=O)[C@H](CO)NC(=O)[C@H](CO)NC(=O)[C@H](CO)NC1=O) [SEQ ID NO: 30] |  |  |  |  |  | −8017 deg.cm^2.dmol^−1.residue^−1 | 6827 deg.cm^2.dmol^−1.residue^−1 | −4432 deg.cm^2.dmol^−1.residue^−1 | 0.55 | 0.30 | 
12 | H-(cyclo-1,5)-[KARAD]-OH (H-KARAD-OH; lactam 1-5; SMILES C[C@@H]1NC(=O)[C@H](CCCNC(=N)N)NC(=O)[C@H](C)NC(=O)[C@@H](N)CCCCNC(=O)C[C@@H](C(=O)O)NC1=O) [SEQ ID NO: 22] | 0.08 | −4966 deg.cm^2.dmol^−1.residue^−1 | −5737 deg.cm^2.dmol^−1.residue^−1 | −1033 deg.cm^2.dmol^−1.residue^−1 | 0.18 |  |  |  |  |  | 
